Reference: paper PMC10154330, “Machine learning-driven multifunctional peptide engineering for sustained ocular drug delivery” (Nature Communications, 2023)
Where two headings read alike, the source gives them in different places. Peptide text beside a SMILES is read from it. * marks the point of attachment. X1 = CC(C)[C@H](NC(=O)CCCCCN1C(=O)CC(*)C1=O)C(=O)N[C@@H](CCCNC(N)=O)C(=O)Nc1ccc(C[N+]2=C(Nc3ccc4nccnc4c3Br)NCC2)cc1

Assays:
[1] = In vitro stability of HR97-brimonidine conjugate in human aqueous or vitreous; type: in vitro ADME; settings: for remaining at 24 h, 1 mg/mL / remaining at 168 h, 1 mg/mL / remaining at 336 h, 1 mg/mL / remaining at 672 h, 1 mg/mL: male, human, human aqueous humor (donor eyes, 0.02 µm filtered), stability in human aqueous humor, read-out: Normalized HR97-VC-PAB-brimonidine (%)
Method: Two pairs of human donor eyes were obtained from the Lions Gift of Sight under protocol IRB00056984 approved by the Johns Hopkins University School of Medicine Institutional Review Board. Both donors were male with an mean age of 74.5. The post-mortem times ranged from 35–40 h. The eyes were kept at 4 °C during transport and arrived within 48 h post-mortem. The vitreous and aqueous were first isolated and subsequently combined and filtered through the 0.02 µm syringe filter to remove cell debris. HR97-brimonidine (1 mg/mL) was incubated with human aqueous or vitreous (700 µL) at 37 °C (n = 3). On days 0, 1, 7, 14, 21 and 28, 100 µL of the solutions were collected, diluted with 900 µL of acetonitrile, and characterized by HPLC (Prominence LC2030, Shimadzu) with Luna® 5 µm C18(2) 100 Å LC column 250 × 4.6 mm (Phenomenex). The elution flow rate was 1 mL/min and with gradient of 10/90/90/10% solvent B (TFA 0.1% in ACN) in 1/11/13/15 min at λmax = 250 nm for HR97-brimonidine (RT = 4.6 min).

[2] = test system: human cathepsins B, K, L, and S; assay: Cathepsin cleavage assay
[3] = Ocular safety evaluation / ocular grading after ICM injection; settings: single ICM injection, 200 µg brimonidine equivalent
Method: (§1) For the IOP measurements in normotensive rabbits, Dutch Belted rabbits (2–3 kg) were used (n = 5). IOP was measured with a hand-held rebound tonometer icareTONOVET (Vantaa, Finland) in the awake and gently restrained rabbit. Each rabbit was acclimatized to the IOP measurement procedure for at least 5 days to obtain a stable background IOP reading. A mean of three IOP measurements for an individual eye were taken every other day for 6 days (3 times in total) and used as a baseline value. For the ICM injection procedure, rabbits were anesthetized with ketamine/xylazine and received topical anesthesia with 0.5% proparacaine hydrochloride. A corneal pre-puncture was performed with a 30 G needle, followed with a single bolus ICM injection of 200 µg (mass of brimonidine) of HR97-brimonidine or brimonidine tartrate solution in 100 µL saline using a 28 G needle. After the procedure, topical bacitracin-neomycin-polymyxin ophthalmic ointment was applied to both eyes to prevent infection and dry eyes. On day 7, an ophthalmologist masked to treatment evaluate the HR97-brimonidine injected eyes with the following items: functionality of lids, lashes, conjunctiva, cornea transparency, pigmentation of corneal endothelium, depth of anterior chambers, inflammation, fibrin strands, and symmetry of the lens[113]. […] In a separate study, a corneal pre-puncture was performed with a 30 G needle, followed with a single bolus ICM injection of 200 µg (mass of brimonidine) containing a physical mixture of unconjugated HR97 and brimonidine tartrate (HR97 + brimonidine), the equivalent amount of HR97 peptide alone, or saline alone in 100 µL saline. On day 7, day 14, day 21, and day 28, an ophthalmologist masked to treatment performed the same safety evaluations described above. IOP was measured on days 2, 3, 4, 5, 6, 7, 8, 10, 12, 14, 16, 18, and 20 after the ICM injection, and change in IOP from the baseline (ΔIOP) was reported. The mean of three IOP measurements was taken for each eye by one observer, and then confirmed by a masked observer. Alternatively, a single topical eye drop (Alphagan® P 0.1%, 50 µL) was given (n = 5). The IOP were measured immediately before the topical dosing (0 h), and at 2, 4, 6 and 8 h after the eyedrop administration. For the pharmacokinetics studies, rabbits (n = 4 per group) received a single ICM injection with 200 µg (mass of brimonidine) HR97-brimonidine as described above. Rabbits were sacrificed 1, 7, 14, 28 days after the injection, and iris, aqueous, and retina were collected for measuring the brimonidine concentration.

[4] = Brimonidine in ocular tissues after ICM injection (LC-MS/MS); settings: LC-MS/MS
Method: as §1
Brimonidine concentrations in ocular tissues were measured by liquid chromatography-tandem mass spectrometry (LC-MS/MS) as previously described. All samples were collected in pre-weighed tubes and stored at −80 °C until processing for analysis. Tissue samples were homogenized in 100–600 μL 1 × PBS using a Bullet Blender® (Next Advance, Inc, Troy, NY, USA) before extraction. Brimonidine were extracted from 15 to 50 μL of tissue homogenates with 50 μL of acetonitrile containing 50/50/2.5 ng/mL of the internal standards. The top layer was then transferred to an autosampler vial for LC-MS/MS analysis after centrifugation. All ocular tissue samples were analyzed using a 1 × PBS standard curve for brimonidine. […] The column effluent was monitored using a 5500 mass-spectrometric detector (Sciex) using electrospray ionization operating in positive mode. The mobile phase A was water containing 0.1% formic acid and mobile phase B was acetonitrile containing 0.1% formic acid. The gradient started with mobile phase B held at 20% for 0.5 min and increased to 100% over 0.5 min; 100% mobile phase B was held for 1 min and then returned to 20% mobile phase B and allowed to equilibrate for 1 min.

[5] = test system: melanin nanoparticles (mNPs); assay: In vitro melanin binding assay (binding capacity and Kd, RED device, HPLC); set-up: species or system Sepia officinalis
Method: The solutions (400 µL) were then mixed thoroughly with 400 µL of 1 mg/mL mNPs in pH 6.5 PBS solution and transferred to the inner reservoir of the rapid equilibrium dialysis (RED) device inserts (8 K MWCO). The outer reservoir was filled with 800 µL of pH 6.5 PBS solution. The samples were incubated on an orbital shaker with temperature control at 37 °C and 300 rpm for 48 h (n = 3). The solutions from outer reservoir (free drug) were than collected and transferred to an autosampler vial for HPLC analysis (Prominence LC2030, Shimadzu, Columbia, MD) with photodiode-array detection (PDA) system. […] The amount of bound drug was used to calculate the binding capacity (mol drug/mg melanin) and the dissociation constant (Kd) as previously described[20],[34].

[6] = test system: intraocular pressure; assay: IOP measurement in normotensive Dutch Belted rabbits; type: in vivo
Method: as §1

[7] = 28 days after single ICM injection of HR97-brimonidine (200 µg brimonidine equivalent), n = 3-4
[8] = binding capacity and dissociation constant of ocular drugs, melanin

FSGKRRKRKPRC [HR97-brimonidine, HR97 peptide conjugated to brimonidine via a quaternary-ammonium traceless linker (MC-Val-Cit-PAB)]
brimonidine released from the conjugate in human aqueous fluid ([1]; 1 mg/mL in human aqueous (donor eyes, 0.02 µm filtered), 37 °C, over 28 days, HPLC 250 nm, normalized to day 0, mean of n = 3): ~ 7%
cathepsin cleavage assay, Cathepsin ([2]; replicate 1): 47
cathepsin cleavage assay, Cathepsin ([2]; replicate 2): 58
cathepsin cleavage assay, Cathepsin ([2]; replicate 3): 42
brimonidine liberated with human cathepsin cocktails ([2]; conjugate 200 μM diluted 1:1 with 100 mM citrate buffer pH 5.5, 5 mM cysteine, cathepsins B, K, L, S 150 nM each, within 48 h, 37 °C, HPLC, normalized to 0 h, n = 3): ~ 52%
ocular toxicity, ophthalmologist evaluation on day 7 [3]: no apparent inflammation or fibrin strands
brimonidine concentration in aqueous humor [4, 7]: 0.4 ng/g
brimonidine concentration in iris [4, 7]: 980 ng/g
brimonidine concentration in retina [4, 7]: 8.3 ng/g
brimonidine concentration in the aqueous ([4]; day 7 after single ICM injection of HR97-brimonidine): 83.3 ng/g
brimonidine concentration in the aqueous ([4]; day 14 after single ICM injection of HR97-brimonidine): 3.9 ng/g
Binding Capacity (mole/mg melanin) [5, 8]: 5.9e-7 mole/mg melanin
Kd [5, 8]: 4.36 µM
increase in the in vitro melanin binding capacity of brimonidine by conjugation to HR97 ([5]; versus brimonidine): ~ 10 fold
AUClast of cumulative ΔIOP, fold greater compared to brimonidine solution ([6]; 20-day measurement period after ICM injection, n = 5, p < 0.001): ~ 17 fold
time during which mean ΔIOP remained significantly larger than with brimonidine solution or physical mixture ([6]; single ICM injection): up to 14 days
peak ΔIOP at 2 days ([6]; single ICM injection, 200 µg brimonidine equivalent, n = 5): −4.9 ± 0.46 mmHg
time for the mean ΔIOP to return to baseline ([6]; single ICM injection, n = 5 per group): 20 days
duration of IOP lowering ([6]; single ICM injection, normotensive rabbits): up to 18 days

CC(C)[C@H](NC(=O)CCCCCN1C(=O)CC(SC[C@H](NC(=O)[C@H](CCCNC(=N)N)NC(=O)[C@@H]2CCCN2C(=O)[C@H](CCCCN)NC(=O)[C@H](CCCNC(=N)N)NC(=O)[C@H](CCCCN)NC(=O)[C@H](CCCNC(=N)N)NC(=O)[C@H](CCCNC(=N)N)NC(=O)[C@H](CCCCN)NC(=O)CNC(=O)[C@H](CO)NC(=O)[C@@H](N)Cc2ccccc2)C(=O)O)C1=O)C(=O)N[C@@H](CCCNC(N)=O)C(=O)Nc1ccc(C[N+]2=C(Nc3ccc4nccnc4c3Br)NCC2)cc1 (stereo partly shown) [HR97-VC-PAB-brimonidine] (H-FSGKRRKRKPRC(X1)-OH; N-terminus and C-terminus assumed)
remaining at 24 h, 1 mg/mL ([1]; day 1, replicate 1): 99.1%
remaining at 24 h, 1 mg/mL ([1]; day 1, replicate 2): 93.5%
remaining at 24 h, 1 mg/mL ([1]; day 1, replicate 3): 95.5%
remaining at 168 h, 1 mg/mL ([1]; day 7, replicate 1): 90.8%
remaining at 168 h, 1 mg/mL ([1]; day 7, replicate 2): 101%
remaining at 168 h, 1 mg/mL ([1]; day 7, replicate 3): 96.4%
remaining at 336 h, 1 mg/mL ([1]; day 14, replicate 1): 92.6%
remaining at 336 h, 1 mg/mL ([1]; day 14, replicate 2): 95.3%
remaining at 336 h, 1 mg/mL ([1]; day 14, replicate 3): 93.9%
remaining at 672 h, 1 mg/mL ([1]; day 28, replicate 1): 88.5%
remaining at 672 h, 1 mg/mL ([1]; day 28, replicate 2): 95%
remaining at 672 h, 1 mg/mL ([1]; day 28, replicate 3): 92.3%
